Experimental data: PMC3563542, “Refolding and Enzyme Kinetic Studies on the Ferrochelatase of the Cyanobacterium Synechocystis sp. PCC 6803” (PLoS ONE, 2013)

B1: His-FeCh, recombinant type II ferrochelatase of Synechocystis sp. PCC 6803 with N-terminal His6-tag (enzyme, UniProt P54225 1-387, looked up)
chain: MGRVGVLLLNLGGPEKLEDVRPFLFNLFADPEIIRLPFPWLQKPLAWLISTLRAKKSQANYAEIGGGSPLLQITEAQASALTTRLERLGQDAKVYIGMRYWHPFTEEAVEKIKGDRLQRLVILPLYPHFSISTSGSSFRVLEEMWHNDPSLRQLDYSLIPSWYDHPGYLQAMADLIAQELKKFPNPDQAHIFFSAHGVPQSYVDEAGDPYQAEIEACTRLIMRTLDRPNQYTLAYQSRVGPVEWLKPYTEEALQKLGAEGIDDLLVVPISFVSEHIETLQEIDIEYREIAEEAGIDNFQRVPALNTHPVFIDALAQMVMDSLNDPPCTFETVPHPKKNMKMYPQERWEWGLTTAAEVWNGRLAMLGFIALLVELISGQGPLHFVGLL
notes: Ferrochelatase (hemH) of Synechocystis sp; PCC 6803, GenBank BAA10523.1, amplified from genomic DNA from the start codon to the stop codon; full length with the C-terminal CAB domain; tagged protein 47 kDa; also called full length His-FeCh; not shown: His6, N-terminal, kept
B2: FeCh, recombinant full-length ferrochelatase of Synechocystis sp. PCC 6803 after removal of the N-terminal His6-tag (enzyme, UniProt P54225 1-387, looked up)
chain: B1 chain
notes: Ferrochelatase (hemH) of Synechocystis sp; PCC 6803, GenBank BAA10523.1, full length with the C-terminal CAB domain; monomer 44 kDa; also called full-length FeCh; source: E. coli, His-FeCh after IMAC, His6-tag removed with thrombin, purified (HisGraviTrap, Sephacryl S-100-HR); not shown: His6, N-terminal, cleaved

Biological target: the molecule itself
Assay: SEC; native size exclusion chromatography, Sephacryl S-100-HR, buffer B (50 mM Tris pH 8, 0.1 M NaCl, 0.5 M KCl, 20% glycerol, 20 mM Na-cholate, 0.1 mM TCEP) as eluent; monomer separated from higher molecular weight forms

Row | Protein | binding result
1 | B1 | binds
2 | B2 | binds
